Where a chain is given by its changes, count along the chain named.
What was measured:
[1] = target: SNAP-25134-197 peptide (human); test: SPR (BIAcore 3000); by Table 9 the KD of 1D3B8 is the lower one
[2] = target: SNAP-25134-197 peptide (human); test: SPR (BIAcore 3000), peptide amine-coupled to CM5, antibody as analyte, 1:1 fit
[3] = target: SNAP-25134-197 peptide (human); test: SPR (BIAcore 3000), peptide amine-coupled to CM5, antibody as analyte, 1:1 fit; first of two runs
[4] = target: SNAP-25134-197 peptide (human); test: SPR (BIAcore 3000), peptide amine-coupled to CM5, antibody as analyte, 1:1 fit; second of two runs, other chip

B1: α-SNAP-25 monoclonal antibody 1D3B8 (antibody, V domains shown)
VH: QVKLQESGAELVKPGASVKISCKASGYIFTDHALHWVRQKPEQGLEWIGYIFPGNGNIEYNEKFKGKATLTADKSSSTAYMQLNSLTSGDSAMYFCKKMDYWGQGTTVTVSS
VL: DVLMTQTPLSLPVSLGDQASISCRSSQSIVHSNGNTYLEWYLQKPGQSPKLLIYKVSNRFSGVPDRFSGSGSGTDFTLKISRVEAEDLGVYYCFQGSHVPPTFGAGTKLELKR
- fold difference of the equilibrium disassociation constant against MC-6050 and MC-6053 [1]: 10 fold
- Kd [2]: 0.05 nM
- koff [2]: 5.78e-05 s⁻¹
- kon [2]: 1.06e+06 M⁻¹ s⁻¹

B2: α-SNAP-25 monoclonal antibody 2C9B10 (antibody, V domains shown)
VH: B1 VH with I28T, A33S, L34I, R38K, E42G, I51L, I58F, Q82H, G89E, M93V
VL: DIQMTQSPASLSASVGETVTITCRTTENIYSYFVWSQQRQGKSPQLRVYNAKSLAEGVPSSFNVSVSGTQFSLKINSLQPEDFGTYHCQHHYGTPYTFGGGTRLEIRR
- Kd [2]: 27.1 nM
- koff [2]: 0.000311 s⁻¹
- kon [2]: 11500 M⁻¹ s⁻¹

B3: α-SNAP-25 monoclonal antibody 2E2A6 (antibody, V domains shown)
VH: QVQLQQSDAELVKPGASVKISCRASGYTFTDHSIHWVKQQPGQGLEWIGYIFPGNGNIEYNDKFKGKATLTADKSSGTAYMQLNSLTSEDSAVYFCKRMGYWGQGTSVTVSS
VL: DVLMTQTPLTLSVTIGQPASISCKSSQSLLYTNGKTYLTWLFQRPGQSPKRLIYLVSELDSGVPDRFSGSGSGTDFTLEITRVEAEDLGVYYCLQSAHFPFTFGSGTKLEIKR
- Kd [3]: 0.09 nM
- koff [3]: 0.000153 s⁻¹
- kon [3]: 1.7e+06 M⁻¹ s⁻¹
- Kd [4]: 0.405 nM
- koff [4]: 6.74e-05 s⁻¹
- kon [4]: 166000 M⁻¹ s⁻¹

B4: α-SNAP-25 monoclonal antibody 3C1A5 (antibody, V domains shown)
VH: QVKLQESGAELVKPGASVKISCKASGYTFTDHSIHWVKQKPGQGLEWIGYLFPGNGNFEYNEKFKGKATLTADKSSSTVYMYLNSLTSEDSAVYFCKRMGYWGQGTTVTVSS
VL: B3 VL with L3V, Y31N, F42I, K50Q, E58K, E79K, T81S, A97S
- Kd [2]: 1.33 nM
- koff [2]: 0.000288 s⁻¹
- kon [2]: 217000 M⁻¹ s⁻¹

Reference: patent US20100203559A1
